Assays:
[1] = target: T1, human TNFα in complex with compound (39) (human, UniProt P01375 77-233); assay: SPR (BIAcore T200), against apo human TNFα
T1 construct: also called Human TNFα + compound (39); compound-distorted human TNFα

[2] = target: T2, human TNFα in complex with compound (15) (human, UniProt P01375 77-233); assay: SPR (BIAcore T200), against apo human TNFα
T2 construct: also called Human TNFα + compound 15; Human TNFα + compound (15)
T2 sequence (P01375 77-233 limits assumed, one chain of several): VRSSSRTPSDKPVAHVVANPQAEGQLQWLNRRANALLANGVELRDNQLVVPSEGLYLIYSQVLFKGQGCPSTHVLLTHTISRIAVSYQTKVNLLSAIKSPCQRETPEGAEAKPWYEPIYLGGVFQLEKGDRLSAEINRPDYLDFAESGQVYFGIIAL

T1 sequence (P01375 77-233 limits assumed, one chain of several): as above

selective binding over apo human TNFα (log) [1]: > 2 log
selective binding over apo human TNFα (log) [2]: > 2 log
B1: CA185_01979 (antibody, mouse IgG1, kappa, V domains shown)
VH: EVHLVESGPGLVKPSQSLSLTCSVTGYSITNSYWDWIRKFPGNKMEWMGYINYSGSTGYNPSLKSRISISRDTSNNQFFLQLNSITTEDTATYYCARGTYGYNAYHFDYWGRGVMVTVSS
VL: DIQMTQSPASLSASLEEIVTITCQASQDIGNWLSWYQQKPGKSPHLLIYGTTSLADGVPSRFSGSRSGTQYSLKISGLQVADIGIYVCLQAYSTPFTFGSGTKLEIKR
notes: also called CA185_01979.0; CA185_1979

— US20180231562A1 (UCB, published 2018)
